The data set deals with the molecule itself. In words: SEC.

B1: RIG-I-TD (RIG-I triple deamidation mutant) (natural protein)
chain: MTTEQRRSLEAFQDYIRKTLDPTYILSYMAPWFREEEVQYIQAEKNNKGPMEAATLFLKFLLELQEEGWFRGFLDALDHAGYSGLYEAIESWDFKKIEKLEEYRLLLKRLQPEFKTRIIPTDIISDLSECLINQECEEILQICSTKGMMAGAEKLVECLLRSDKENWPKTLKLALEKERNKFSELWIVEKGIKDVETEDLEDKMETSDIQIFYQEDPECQNLSENSCPPSEVSDTNLYSPFKPRDYQLELALPAMKGKNTIICAPTGCGKTFVSLLICEHHLKKFPQGQKGKVVFFANQIPVYEQQKSVFSKYFERHGYRVTGISGATAENVPVEQIVENNDIIILTPQILVNNLKKGTIPSLSIFTLMIFDECHNTSKQHPYNMIMFNYLDQKLGGSSGPLPQVIGLTASVGVGDAKNTDEALDYICKLCASLDASVIATVKHDLEELEQVVYKPQKFFRKVESRISDKFKYIIAQLMRDTESLAKRICKDLENLSQIQNREFGTQKYEQWIVTVQKACMVFQMPDKDEESRICKALFLYTSHLRKYNDALIISEHARMKDALDYLKDFFSNVRAAGFDEIEQDLTQRFEEKLQELESVSRDPSNENPKLEDLCFILQEEYHLNPETITILFVKTRALVDALKNWIEGNPKLSFLKPGILTGRGKTNQNTGMTLPAQKCILDAFKASGDHNILIATSVADEGIDIAQCNLVILYEYVGNVIKMIQTRGRGRARGSKCFLLTSNAGVIEKEQINMYKEKMMNDSILRLQTWDEAVFREKILHIQTHEKFIRDSQEKPKPVPDKENKKLLCRKCKALACYTADVRVIEECHYTVLGDAFKECFVSRPHPKPKQFSSFEKRAKIFCARQNCSHDWGIHVKYKTFEIPVIKIESFVVEDIATGVQTLYSKWKDFHFEKIPFDPAEMSK
On to B1, for which the binding result is recorded as “binds”.

The values are drawn from PMC4385502 (Molecular cell, 2015).
